The target of the assay is HIV-1 envelop trimer (BG505 DS-SOSIP) (HIV-1 group M subtype A, isolate BG505, UniProt Q2N0S6, stabilised).

B1: VHH9 row 4 (VHH9 group, Nb10-Nb13) (VHH)
VHH: QVKLEESGGGSVQAGGSLRLSCTAPGFTSNSCGMAWYRQAPGKEREFVSSISTDGTTSYADSVKGRFTISKDKAKDTVYLQMNSLKPEDTAMYSCKTYGPYCYFDVWGAGTTVTVSA
For the molecule B1, the binding result is on record as “binds”.

The values are drawn from paper doi:10.1101/2021.03.04.433768 (bioRxiv, 2021).
